Paper PMC2134296

Biological target: adenomatous polyposis coli (APC) protein (endogenous, MDCK cells) (dog (endogenous in MDCK))
Test: co-IP

Row | Substance | fold coimmunoprecipitated with APC protein relative to endogenous β-catenin
1 | ΔN90 β-catenin (KT3-tagged, NH2-terminal 90 amino acids deleted) (from UniProt Q02248 91-781) (domain or fragment) | 3 fold
2 | ΔN131 β-catenin (KT3-tagged, NH2-terminal 131 amino acids deleted) (from UniProt Q02248 132-781) (domain or fragment) | 3 fold
3 | ΔN151 β-catenin (KT3-tagged, NH2-terminal 151 amino acids deleted) (from UniProt Q02248 152-781) (domain or fragment) | 3 fold
